From article PMC10200994

Target: T1, STAT1 (unphosphorylated, wild-type), fluorophore fusion, P42224
T1 chain: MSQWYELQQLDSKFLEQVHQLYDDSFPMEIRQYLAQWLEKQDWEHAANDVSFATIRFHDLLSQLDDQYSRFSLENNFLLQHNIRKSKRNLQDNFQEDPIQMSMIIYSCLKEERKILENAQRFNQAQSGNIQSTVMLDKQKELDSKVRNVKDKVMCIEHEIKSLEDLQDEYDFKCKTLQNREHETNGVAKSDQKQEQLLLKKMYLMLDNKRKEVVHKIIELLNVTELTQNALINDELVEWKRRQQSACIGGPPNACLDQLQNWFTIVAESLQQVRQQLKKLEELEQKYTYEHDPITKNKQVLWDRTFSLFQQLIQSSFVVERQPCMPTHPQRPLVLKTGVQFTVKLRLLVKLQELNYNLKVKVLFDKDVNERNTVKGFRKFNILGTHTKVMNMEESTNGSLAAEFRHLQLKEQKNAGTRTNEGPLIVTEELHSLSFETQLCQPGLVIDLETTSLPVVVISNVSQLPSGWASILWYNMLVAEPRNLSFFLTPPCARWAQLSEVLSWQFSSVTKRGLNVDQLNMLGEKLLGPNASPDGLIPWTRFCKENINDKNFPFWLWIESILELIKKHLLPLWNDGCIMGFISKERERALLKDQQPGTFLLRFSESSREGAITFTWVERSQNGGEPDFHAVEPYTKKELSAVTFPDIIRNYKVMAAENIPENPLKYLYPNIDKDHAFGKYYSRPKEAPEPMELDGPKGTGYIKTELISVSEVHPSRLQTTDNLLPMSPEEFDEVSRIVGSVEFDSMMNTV
Assay: co-localization assay (relocalisation of a test protein by a compartment-targeted bait, fluorescence microscopy); HeLa cells co-expressing bait (STAT-NES or STAT-NLS, or wild-type STAT2 with its own export activity; green) and test protein without heterologous signal (red); no cytokine; fixed 20 h after transfection; Pearson correlation coefficient rP in cells with equimolar to 4-fold excess of bait
Conditions: remark: other sources report otherwise

- Pearson correlation coefficient rP (co-localization): > 0.94
B1: STAT1 (unphosphorylated, wild-type), fluorophore fusion, P42224 1-750 (natural protein)
chain: MSQWYELQQLDSKFLEQVHQLYDDSFPMEIRQYLAQWLEKQDWEHAANDVSFATIRFHDLLSQLDDQYSRFSLENNFLLQHNIRKSKRNLQDNFQEDPIQMSMIIYSCLKEERKILENAQRFNQAQSGNIQSTVMLDKQKELDSKVRNVKDKVMCIEHEIKSLEDLQDEYDFKCKTLQNREHETNGVAKSDQKQEQLLLKKMYLMLDNKRKEVVHKIIELLNVTELTQNALINDELVEWKRRQQSACIGGPPNACLDQLQNWFTIVAESLQQVRQQLKKLEELEQKYTYEHDPITKNKQVLWDRTFSLFQQLIQSSFVVERQPCMPTHPQRPLVLKTGVQFTVKLRLLVKLQELNYNLKVKVLFDKDVNERNTVKGFRKFNILGTHTKVMNMEESTNGSLAAEFRHLQLKEQKNAGTRTNEGPLIVTEELHSLSFETQLCQPGLVIDLETTSLPVVVISNVSQLPSGWASILWYNMLVAEPRNLSFFLTPPCARWAQLSEVLSWQFSSVTKRGLNVDQLNMLGEKLLGPNASPDGLIPWTRFCKENINDKNFPFWLWIESILELIKKHLLPLWNDGCIMGFISKERERALLKDQQPGTFLLRFSESSREGAITFTWVERSQNGGEPDFHAVEPYTKKELSAVTFPDIIRNYKVMAAENIPENPLKYLYPNIDKDHAFGKYYSRPKEAPEPMELDGPKGTGYIKTELISVSEVHPSRLQTTDNLLPMSPEEFDEVSRIVGSVEFDSMMNTV
